Assay [1] deals with CD44 (HCELL), native glycoprotein from human HSPCs (KG1a, CD34^pos fraction) (human) (UniProt P16070). Put plainly: SPR, from the binding isotherm; CD44 captured from KG1a lysate.
For assay [2], the target named is T1, CD34, native glycoprotein from human HSPCs (KG1a, CD34^pos-BM, CD34^pos-UCB, CD34^pos-AML) (human, UniProt P28906 32-385, native glycosylation (about 120-130 kDa form); sialylated O-glycans and tyrosine sulfation are shown to matter for selectin binding).
T1 construct: mature; also called E-selL CD34
T1 sequence (looked up): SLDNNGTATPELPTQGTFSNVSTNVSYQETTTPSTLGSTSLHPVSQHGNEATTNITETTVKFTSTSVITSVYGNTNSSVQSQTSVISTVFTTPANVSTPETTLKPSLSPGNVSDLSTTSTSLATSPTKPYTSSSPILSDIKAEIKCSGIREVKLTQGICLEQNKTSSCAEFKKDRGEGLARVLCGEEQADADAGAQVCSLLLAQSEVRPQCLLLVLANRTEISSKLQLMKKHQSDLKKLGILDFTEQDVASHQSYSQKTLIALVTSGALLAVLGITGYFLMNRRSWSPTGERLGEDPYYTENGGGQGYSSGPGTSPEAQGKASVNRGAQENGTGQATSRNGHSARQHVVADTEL
Description: SPR; CD34 captured from CD34^pos-BM lysate on 563 mAb; apparent rate constant, estimate.

Assay [3] addresses CD44 (HCELL), native glycoprotein from human HSPCs (KG1a, CD34^pos fraction) (human) (UniProt P16070). Description: SPR; CD44 captured from KG1a lysate on Hermes-3-mAb, E-Ig injected, 150 mM NaCl; apparent rate constant; 1st experiment.
Assay [4] addresses T1, CD34, native glycoprotein from human …. Put plainly: SPR; CD34 captured from KG1a lysate on 563-mAb, E-Ig injected, 150 mM NaCl; apparent rate constant; mean ± SEM.
The target is the same in assay [5]. Description: SPR; CD34 captured from CD34^pos-BM lysate on 563 mAb, E-Ig injected, 50 mM NaCl; steady-state model.
Assay [6] concerns the target CD44 (HCELL), native glycoprotein from human HSPCs (KG1a, CD34^pos fraction) (human) (UniProt P16070). Description: SPR; CD44 captured from KG1a lysate on Hermes-3-mAb, E-Ig injected (3.9-2000 nM), 150 mM NaCl; steady-state model; mean ± SEM.
The target of assay [7] is T1, CD34, native glycoprotein from human …. Description: SPR; CD34 captured from KG1a lysate on 563-mAb, E-Ig injected, 150 mM NaCl; apparent rate constant; 1st experiment.
For assay [8], the target named is T2, PSGL-1, native glycoprotein from human HSPCs (KG1a, CD34^pos-BM) (human, UniProt Q14242 42-412, native glycosylation and tyrosine sulfation).
T2 construct: mature; also called P-selectin glycoprotein ligand-1
T2 sequence (looked up): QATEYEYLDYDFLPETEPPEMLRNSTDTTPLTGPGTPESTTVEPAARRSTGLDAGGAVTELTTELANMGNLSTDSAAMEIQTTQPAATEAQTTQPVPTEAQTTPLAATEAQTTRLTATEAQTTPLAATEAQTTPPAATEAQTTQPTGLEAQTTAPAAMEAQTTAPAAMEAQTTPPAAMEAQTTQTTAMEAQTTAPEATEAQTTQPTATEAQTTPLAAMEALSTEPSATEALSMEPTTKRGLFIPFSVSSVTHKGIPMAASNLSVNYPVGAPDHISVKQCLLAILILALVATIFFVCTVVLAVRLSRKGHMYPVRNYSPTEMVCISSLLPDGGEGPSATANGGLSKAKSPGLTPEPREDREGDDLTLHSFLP
Description: SPR; PSGL-1 captured from KG1a lysate on KPL-1-mAb, E-Ig injected, 150 mM NaCl; apparent rate constant; mean ± SEM.

Assay [9] has as its target CD44 (HCELL), native glycoprotein from human HSPCs (KG1a, CD34^pos fraction) (human) (UniProt P16070). Put plainly: SPR; CD44 captured from KG1a lysate on Hermes-3-mAb, E-Ig injected (3.9-2000 nM), 150 mM NaCl; steady-state model; 2nd experiment.
Assay [10] addresses T1, CD34, native glycoprotein from human …. Put plainly: SPR; CD34 captured from KG1a lysate on 563-mAb, E-Ig injected (3.9-2000 nM), 150 mM NaCl; steady-state model; 3rd experiment.
Assay [11] has as its target T2, PSGL-1, native glycoprotein from human …. Put plainly: SPR; PSGL-1 captured from KG1a lysate on KPL-1-mAb, E-Ig injected (3.9-2000 nM), 150 mM NaCl; steady-state model; 1st experiment.
Assay [12] deals with CD44 (HCELL), native glycoprotein from human HSPCs (KG1a, CD34^pos fraction) (human) (UniProt P16070). Put plainly: SPR, decay after injection of E-Ig (177 nM, 1 mM CaCl2) over CD44 captured on Hermes-3; apparent constant that includes loss of CD44 from the mAb, s^-1 as in paragraph 58.

Results on 1 molecule are retold here after patent US20200199533A1 (KING ABDULLAH UNIVERSITY OF SCIENCE AND TECHNOLOGY, published 2020).

CD44 (HCELL), native glycoprotein from human HSPCs (KG1a, CD34^pos fraction) (human), sequence (P16070 21-742): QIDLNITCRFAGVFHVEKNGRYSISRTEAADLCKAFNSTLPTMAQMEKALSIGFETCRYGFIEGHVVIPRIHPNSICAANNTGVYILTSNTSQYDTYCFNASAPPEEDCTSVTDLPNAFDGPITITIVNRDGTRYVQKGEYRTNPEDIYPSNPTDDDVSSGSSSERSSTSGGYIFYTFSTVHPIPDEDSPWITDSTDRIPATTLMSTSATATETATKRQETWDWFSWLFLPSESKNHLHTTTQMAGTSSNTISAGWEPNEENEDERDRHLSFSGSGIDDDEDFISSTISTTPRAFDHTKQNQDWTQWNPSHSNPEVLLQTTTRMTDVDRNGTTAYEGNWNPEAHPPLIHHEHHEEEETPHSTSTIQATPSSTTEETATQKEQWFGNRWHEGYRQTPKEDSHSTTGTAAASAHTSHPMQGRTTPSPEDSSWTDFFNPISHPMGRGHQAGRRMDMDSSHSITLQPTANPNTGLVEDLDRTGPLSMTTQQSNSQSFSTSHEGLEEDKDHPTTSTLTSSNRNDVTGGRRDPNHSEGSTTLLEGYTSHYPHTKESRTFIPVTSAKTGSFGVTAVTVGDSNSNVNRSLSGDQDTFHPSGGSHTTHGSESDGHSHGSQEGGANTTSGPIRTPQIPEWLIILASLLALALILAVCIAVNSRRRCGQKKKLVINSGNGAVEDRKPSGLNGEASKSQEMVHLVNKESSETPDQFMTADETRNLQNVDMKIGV

B1: recombinant E-selectin human immunoglobulin chimeric protein (Fc fusion)
chain: WSYNTSTEAMTYDEASAYCQQRYTHLVAIQNKEEIEYLNSILSYSPSYYWIGIRKVNNVWVWVGTQKPLTEEAKNWAPGEPNNRQKDEDCVEIYIKREKDVGMWNDERCSKKKLALCYTAACTNTSCSGHGECVETINNYTCKCDPGFSGLKCEQIVNCTALESPEHGSLVCSHPLGNFSYNSSCSISCDRGYLPSSMETMQCMSSGEWSAPIPACNVVECDAVTNPANGFVECFQNPGSFPWNTTCTFDCEEGFELMGAQSLQCTSSGNWDNEKPTCKAVTCRAVRQPQNGSVRCSHSPAGEFTFKSSCNFTCEEGFMLQGPAQVECTTQGQWTQQIPVCEAFQCTALSNPERGYMNCLPSASGSFRYGSSCEFSCEQGFVLKGSKRLQCGPTGEWDNEKPTCEAVRCDAVHQPPKGLVRCAHSPIGEFTYKSSCAFSCEEGFELHGSTQLECTSQGQWTEEVPSCQVVKCSSLAVPGKINMSCSGEPVFGTVCKFACPEGWTLNGSAARTCGATGHWSGLLPTCEAPTESNIP
With B1, in assay [1], the % E-Ig binding assuming 1:1 stoichiometry was found to be 23%. Further, the kon in assay [2] is ~728 M⁻¹ s⁻¹; in [3] it was 641 M⁻¹ s⁻¹; in [4], 1230 M⁻¹ s⁻¹; in assay [7], 2030 M⁻¹ s⁻¹; in assay [8], 793 M⁻¹ s⁻¹. Besides, the koff is 0.00011 s⁻¹ in assay [3], 0.00026 s⁻¹ in [4], 0.00029 s⁻¹ in assay [7] and 0.00019 s⁻¹ in assay [8]. The Kd in assay [5] is 0.261 µM; in [6], 0.233 µM; in assay [9], 0.252 µM; in [10], 0.297 µM; in assay [11] it was 0.343 µM. In addition, the koff-apparent in assay [12] worked out at 0.00019 s⁻¹.
